Data on one substance can be found in article PMC11528428.

The target in this assay is CD3ζ subunit of the T cell receptor (TCR) in nonactivated Jurkat T cells (human (endogenous in Jurkat)) (UniProt P20963). The experiment in a line: single-molecule localization microscopy (DNA-PAINT with qPAINT counting); nonactivated Jurkat T cells, TIRF; stepwise model: Ka,j of a monomer joining a cluster of j-1 proteins, from the distribution of cluster sizes, j = 2 to 8, average of eight cells.

As for “CD3ζ subunit of the T cell receptor (TCR) in nonactivated Jurkat T cells (from UniProt P20963-1 22-164)”, the log Ka,j (stepwise association of a monomer to a cluster, j = 2-8) (log, μm^2 scale) is -1.4.
